Experiments:
Canine HER2 = Canine HER2 (Canis lupus familiaris, UniProt O18735); experiment: SPR
[1] = molecular target: HER2 on HER2+ SK-OV-3 ovarian cancer cells (Homo sapiens, SK-OV-3 cells, UniProt P04626); experiment: ELISA
[2] = molecular target: Wildtype HER2 domain IV fragment (residues 510-629 of human HER2) (Homo sapiens, UniProt P04626); experiment: SPR

B1: Candidate 2 (de novo designed HCDR3, IgG1 mAb) (antibody, V domains shown)
VH: EVQLVESGGGLVQPGGSLRLSCAASGFNIKDTYIHWVRQAPGKGLEWVARIYPTNGYTRYADSVKGRFTISADTSKNTAYLQMNSLRAEDTAVYYCARYYYGFYYFDYWGQGTLVTVSS
VL: not shown
Q: Does B1 bind (Canine HER2)?
A: Result: binds

Q: What about the “fold change of EC50 against trastuzumab” value [1] of the same binder?
A: Its value is about 3 fold.

B2: Candidate 3 (de novo designed HCDR3, IgG1 mAb) (antibody, V domains shown)
VH: EVQLVESGGGLVQPGGSLRLSCAASGFNIKDTYIHWVRQAPGKGLEWVARIYPTNGYTRYADSVKGRFTISADTSKNTAYLQMNSLRAEDTAVYYCARWGNYYYYMDYWGQGTLVTVSS
VL: not shown
Q: Does B2 bind [2]?
A: Result: binds

From publication doi:10.1101/2023.01.08.523187 (bioRxiv, 2023)
